T1: Biotinylated Prn-E (pertactin residues 38-640 with N-terminal biotinylation sequence) (B. bronchiseptica, UniProt Q03035 38-640, biotin (in vivo biotinylation of the N-terminal biotinylation sequence))
T1 construct: Pertactin of B. bronchiseptica, ectodomain residues 38-640; also called immobilized pertactin
T1 sequence: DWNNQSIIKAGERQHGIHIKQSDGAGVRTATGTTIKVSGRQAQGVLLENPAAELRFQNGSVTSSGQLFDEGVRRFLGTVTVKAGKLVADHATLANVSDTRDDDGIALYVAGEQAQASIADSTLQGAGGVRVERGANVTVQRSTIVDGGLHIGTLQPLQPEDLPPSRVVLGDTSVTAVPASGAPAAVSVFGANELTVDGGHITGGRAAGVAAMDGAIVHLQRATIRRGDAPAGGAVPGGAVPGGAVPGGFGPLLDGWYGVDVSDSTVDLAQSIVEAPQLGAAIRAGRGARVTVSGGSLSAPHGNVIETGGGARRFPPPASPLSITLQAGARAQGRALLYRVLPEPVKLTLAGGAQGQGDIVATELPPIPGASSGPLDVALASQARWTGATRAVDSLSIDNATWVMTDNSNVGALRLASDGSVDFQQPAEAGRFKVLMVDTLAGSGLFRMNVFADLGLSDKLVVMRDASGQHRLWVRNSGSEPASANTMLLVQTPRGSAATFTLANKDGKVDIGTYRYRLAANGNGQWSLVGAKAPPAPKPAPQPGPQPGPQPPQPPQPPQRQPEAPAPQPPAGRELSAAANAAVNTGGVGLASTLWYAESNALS

T2: His-tagged ectodomain of B. bronchiseptica pertactin (Prn-E; residues 38-640) (B. bronchiseptica, UniProt Q03035 38-640)
T2 construct: Pertactin of B. bronchiseptica, 60 kDa ectodomain, residues 38-640 of the 93 kDa precursor; the loop deletion mutants carry an N-terminal His tag from pET28b; also called wild-type Prn-E; His-tagged Prn-E
T2 sequence: T1 sequence

B1: Bordetella bacteriophage major tropism determinant variant Mtd-P1 (natural protein)
chain: MSTAVQFRGGTTAQHATFTGAAREITVDTDKNTVVVHDGATAGGFPLARHDLVKTAFIKADKSAVAFTRTGNATASIKAGTIVEVNGKLVQFTADTAITMPALTAGTDYAIYVCDDGTVRADSNFSAPTGYTSTTARKVGGFHYAPGSNAAAQAGGNTTAQINEYSLWDIKFRPAALDPRGMTLVAGAFWADIYLLGVNHLTDGTSKYNVTIADGSASPKKSTKFGGDGSAAYSDGAWYNFAEVMTHHGKRLPNYNEFQALAFGTTEATSSGGTDVPTTGVNGTGATSAWNIFTSKWGVVQASGCLWTWGNEFGGVNGASEYTANTGGRGSVYAQPAAALFGGAWNGTSLSGSRAALWYSGPSFSFAFFGARGVCDHLILE
notes: Major tropism determinant (Mtd), variant P1, expressed by Bordetella bacteriophage BPP-1; Mtd has 381 residues in total; trimer of 120 kDa
B2: BPP-1 phage displaying Mtd-P1 (other)
chain: B1 chain
notes: Major tropism determinant (Mtd), variant P1, at the ends of the tail fibers of whole BPP-1 phage; 381 residues; Whole phage particle; The other phage proteins are not written; also called BPP-1(Δbrt); source: phage harvested from B. bronchiseptica RB50 cultures, concentrated by centrifugation and ultrafiltration

Columns and labels:
[1] = biological target: T1, Biotinylated Prn-E (pertactin residues …); assay: SPR; Biacore 3000, 25 °C; ~100 RU biotinylated Prn-E on a streptavidin chip; Mtd proteins injected in 150 mM NaCl, 50 mM Tris pH 8.0, 0.005% Tween 20 at 30 μl/min; single-site model, global fit, six concentrations, duplicate; details: both partners purified
[2] = biological target: T2, His-tagged ectodomain of B. …; assay: crystal structure; Mtd-P1·Prn-E complex formed with ~1.6-fold molar excess of Mtd-P1 trimers over His-tagged Prn-E, isolated by Ni2+-chelation and Superdex 200; crystals at 25 °C in 2 M NaCl, 100 mM Tris pH 8.5, 200 mM Li2SO4; 3.16 Å; details: both partners purified
[3] = biological target: T1, Biotinylated Prn-E (pertactin residues …); assay: SPR; Biacore 3000, 25 °C; ~100 RU biotinylated Prn-E on a streptavidin chip; whole phage injected (BPP-1 ~1.2-3.7 × 10^-15 M, BPP-6 ~1-2 × 10^-16 M, BIP-1 8.3 × 10^-16 to 8.3 × 10^-15 M, BMP-1 e.g. 3.68 × 10^-15 M); multivalent; single-site model, global fit; details: one partner purified

Binder | Kd [1] [nM] | kon [1] [M⁻¹ s⁻¹] | stoichiometry N [2] | Kd [3] [nM]
B1 | 3470 ± 130 | ~10000 | 3 Mtd-P1 protomers per Prn-E | 
B2 |  |  |  | 0.00689 ± 0.00177

Reference: publication PMC2408619, “Selective Ligand Recognition by a Diversity-Generating Retroelement Variable Protein” (PLoS Biology, 2008)
